From article PMC11633110
Each block holds one substance with its values, some of them ahead of it.

Legend:
[1] = target: SydRC16S (SC) (Sinorhizobium meliloti); assay: cross-linking; intersubunit disulfide bond assay: proteins reduced in 100 mM DTT for 2 h, desalted, oxidised with 100 mM NaOCl for 30 min, 100 mM N-ethylmaleimide for 2 h at room temperature, 10% non-reducing SDS-PAGE; shows covalent (disulfide) dimers only
[2] = target: T1, SydR' (WT, CC) (Sinorhizobium meliloti Rm2011) (UniProt Q92XY2); assay: EMSA; details: 10 mM Tris-HCl pH 8, 50 mM KCl, 0.5 mM EDTA, 10% glycerol, 0.5 mM DTT, 10 nM DNA, 25°C 25 min; 8% PAGE in 0.5x TBE
T1 sequence: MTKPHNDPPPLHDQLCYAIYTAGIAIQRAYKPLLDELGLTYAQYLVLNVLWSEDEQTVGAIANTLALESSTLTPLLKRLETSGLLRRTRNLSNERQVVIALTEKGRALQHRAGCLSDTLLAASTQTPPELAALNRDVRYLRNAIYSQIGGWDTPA

[3] = target: SydRC114S (CS) (Sinorhizobium meliloti); assay: cross-linking; intersubunit disulfide bond assay: proteins reduced in 100 mM DTT for 2 h, desalted, oxidised with 100 mM NaOCl for 30 min, 100 mM N-ethylmaleimide for 2 h at room temperature, 10% non-reducing SDS-PAGE; shows covalent (disulfide) dimers only
[4] = target: His-tagged recombinant SydR (SydR′), wild type (Sinorhizobium meliloti); assay: as above

stoichiometry N [1]: 2
Substance: SydRC16S (SC) (natural protein)

stoichiometry N [4]: 2
Substance: His-tagged recombinant SydR (SydR′), wild type (natural protein)

More lines, now with the values behind:

Substance: TCTGGGCTCCTTTGCGCACCAATATAATCAAGATTACCGCGAAAACCAATATCGCGATAAGAGATATGTTGACGAGCAGTTCAATATCTGACAACTTAAATATATCGCGATAACAGTTATCGCTATCAACGAAAGGAAAAAGCC (double strand) [sydR-SMa2023 intergenic region, 144 bp]
binding [2]: binds

Substance: SydRC114S (CS) (natural protein)
stoichiometry N [3]: 2

Substance: CCGCCTTCCAGATCAGTACCGGCTTGCTTAGCCAAGCGCTCGGCCAAACGGACTGAGGCCTCCGTTGCGATCCACCCAGGCGACACCCGCACGACCCGGATACCTTTGGACGAAATTTCCTTCGCTATCGACTTGCCG (double strand) [SMa2019 internal fragment, 138 bp]
binding [2]: no binding
